This note sets out measurements from US20240239894A1 (AstraZeneca / MedImmune, published 2024).

The target in one test is T1, huBTN1A1 (human, UniProt Q13410 27-242, limits assumed).
T1 construct: Sourced antigen; construct not described; also called Human BTN1A1
T1 sequence (looked up): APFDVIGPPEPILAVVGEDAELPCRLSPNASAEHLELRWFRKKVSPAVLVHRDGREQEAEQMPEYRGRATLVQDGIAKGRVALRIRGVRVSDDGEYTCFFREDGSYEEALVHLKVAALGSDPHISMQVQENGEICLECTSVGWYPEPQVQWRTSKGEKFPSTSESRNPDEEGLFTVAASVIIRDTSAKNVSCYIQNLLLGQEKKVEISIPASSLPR
Put plainly: ELISA, absorbance 450 nm, antigen human BTN1A1 GST. A general note: In an ELISA, binding on a coated surface is turned into a signal by an enzyme label.

For test [1], the target named is T2, Human B7-H4-Fc (Human B7H4 ECD, Fc_6His) (human).
T2 construct: also called FcHis6 tagged human B7-H4
T2 sequence (Q7Z7D3 whole entry, looked up): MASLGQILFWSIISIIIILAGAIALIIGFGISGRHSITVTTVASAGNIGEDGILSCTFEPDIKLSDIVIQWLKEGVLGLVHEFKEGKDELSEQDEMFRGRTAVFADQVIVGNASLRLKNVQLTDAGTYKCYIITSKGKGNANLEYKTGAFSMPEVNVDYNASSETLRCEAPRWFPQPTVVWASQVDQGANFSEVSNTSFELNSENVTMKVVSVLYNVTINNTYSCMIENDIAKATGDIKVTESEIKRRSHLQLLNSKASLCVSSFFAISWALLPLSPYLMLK
Briefly: HTRF binding, murine IgG1. A general note: Time-resolved FRET reads energy transfer from a long-lived donor to a nearby acceptor.

Another test addresses T3, huB7-H1 (human, UniProt Q9NZQ7 19-238).
T3 construct: Sourced antigen; construct not described; also called Human B7-H1
Briefly: ELISA, absorbance 450 nm, antigen human B7-H1(ECD) F10H.

Test [2] has as its target T4, Cyno B7-H4-Fc (Cyno B7H4 ECD, FcTM_6His) (cynomolgus monkey).
T4 construct: extracellular domain; also called cynomolgus B7-H4-Fc
Briefly: HTRF binding, murine IgG1.

The target in the next test is T5, huB7-H2 (human, UniProt O75144 19-258).
T5 construct: Sourced antigen; construct not described; also called Human B7-H2
T5 sequence (looked up): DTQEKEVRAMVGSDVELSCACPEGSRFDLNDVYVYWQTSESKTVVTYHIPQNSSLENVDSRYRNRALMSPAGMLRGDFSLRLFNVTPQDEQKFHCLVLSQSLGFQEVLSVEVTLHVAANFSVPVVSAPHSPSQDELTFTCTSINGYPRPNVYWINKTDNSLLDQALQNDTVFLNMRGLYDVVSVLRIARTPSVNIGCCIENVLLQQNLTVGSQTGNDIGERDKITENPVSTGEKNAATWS
Put plainly: ELISA, absorbance 450 nm, antigen human B7-H2 (ECD) F10H.

The target in another test is T6, huB7-H3 (human, UniProt Q5ZPR3 29-461, limits assumed).
T6 construct: Sourced antigen; construct not described; also called Human B7-H3
T6 sequence (looked up): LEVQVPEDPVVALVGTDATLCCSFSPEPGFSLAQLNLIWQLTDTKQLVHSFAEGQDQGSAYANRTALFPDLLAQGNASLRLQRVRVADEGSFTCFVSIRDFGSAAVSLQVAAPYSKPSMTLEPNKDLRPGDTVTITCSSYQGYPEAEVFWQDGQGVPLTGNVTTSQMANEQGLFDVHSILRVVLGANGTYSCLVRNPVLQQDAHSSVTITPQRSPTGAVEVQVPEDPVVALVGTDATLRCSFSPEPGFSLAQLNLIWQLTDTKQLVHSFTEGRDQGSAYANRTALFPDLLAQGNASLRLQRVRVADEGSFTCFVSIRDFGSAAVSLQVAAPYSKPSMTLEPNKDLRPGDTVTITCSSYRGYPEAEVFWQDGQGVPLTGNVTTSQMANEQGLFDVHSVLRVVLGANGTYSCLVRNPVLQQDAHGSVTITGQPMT
Briefly: ELISA, absorbance 450 nm, antigen human B7-H3 (ECD) Fc.

The target of another test is T7, huHHLA2 (human, UniProt Q9UM44 23-344).
T7 construct: Sourced antigen; construct not described; also called Human HHLA2
T7 sequence (looked up): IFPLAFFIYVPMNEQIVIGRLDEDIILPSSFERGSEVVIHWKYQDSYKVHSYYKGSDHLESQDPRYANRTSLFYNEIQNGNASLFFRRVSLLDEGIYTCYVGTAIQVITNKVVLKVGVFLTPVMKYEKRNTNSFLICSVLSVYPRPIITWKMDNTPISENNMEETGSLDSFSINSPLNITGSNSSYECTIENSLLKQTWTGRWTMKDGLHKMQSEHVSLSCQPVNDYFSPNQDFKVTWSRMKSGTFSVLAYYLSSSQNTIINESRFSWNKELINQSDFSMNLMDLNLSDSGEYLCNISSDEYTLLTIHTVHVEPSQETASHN
Briefly: ELISA, absorbance 450 nm, antigen human HHLA2 GST.

A further test concerns the target T8, huBTN2A1 (human, UniProt Q7KYR7 29-248, limits assumed).
T8 construct: Sourced antigen; construct not described; also called Human BTN2A1
T8 sequence (looked up): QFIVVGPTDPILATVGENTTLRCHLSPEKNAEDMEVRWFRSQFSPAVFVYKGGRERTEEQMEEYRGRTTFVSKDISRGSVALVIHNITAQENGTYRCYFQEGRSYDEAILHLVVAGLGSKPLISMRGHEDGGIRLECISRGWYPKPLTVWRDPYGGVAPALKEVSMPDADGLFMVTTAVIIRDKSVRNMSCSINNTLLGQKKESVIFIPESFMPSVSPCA
Put plainly: ELISA.

A further test concerns the target T9, huBTNL3 (human, UniProt Q6UXE8 18-237, limits assumed).
T9 construct: Sourced antigen; construct not described; also called Human BTNL3
T9 sequence (looked up): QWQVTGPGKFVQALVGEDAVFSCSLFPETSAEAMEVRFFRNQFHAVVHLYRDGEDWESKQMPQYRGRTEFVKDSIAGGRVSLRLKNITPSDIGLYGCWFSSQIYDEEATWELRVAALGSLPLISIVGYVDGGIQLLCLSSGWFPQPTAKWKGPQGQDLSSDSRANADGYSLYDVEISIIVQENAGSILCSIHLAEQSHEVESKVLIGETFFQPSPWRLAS
Put plainly: ELISA.

Test [3] addresses T10, Murine B7-H4-Fc (Mouse B7H4 ECD, Fc_6His) (mouse, UniProt Q7TSP5 25-257).
T10 construct: extracellular domain; also called mouse B7-H4-Fc; FcHis6 tagged murine B7-H4
T10 sequence (Q7TSP5 whole entry, looked up): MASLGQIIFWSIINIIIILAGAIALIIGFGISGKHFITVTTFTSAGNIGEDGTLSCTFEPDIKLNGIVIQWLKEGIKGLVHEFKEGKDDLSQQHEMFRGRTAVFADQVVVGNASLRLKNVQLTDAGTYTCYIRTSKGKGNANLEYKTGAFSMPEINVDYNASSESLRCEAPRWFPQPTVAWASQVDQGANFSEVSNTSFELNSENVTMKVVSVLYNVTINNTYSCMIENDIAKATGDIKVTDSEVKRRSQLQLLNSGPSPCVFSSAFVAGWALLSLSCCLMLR
Put plainly: HTRF binding, murine IgG1.

The target of the next test is T11, huBTN3A2 (human, UniProt P78410 30-248, limits assumed).
T11 construct: Sourced antigen; construct not described; also called Human BTN3A2
T11 sequence (P78410 30-248 limits assumed): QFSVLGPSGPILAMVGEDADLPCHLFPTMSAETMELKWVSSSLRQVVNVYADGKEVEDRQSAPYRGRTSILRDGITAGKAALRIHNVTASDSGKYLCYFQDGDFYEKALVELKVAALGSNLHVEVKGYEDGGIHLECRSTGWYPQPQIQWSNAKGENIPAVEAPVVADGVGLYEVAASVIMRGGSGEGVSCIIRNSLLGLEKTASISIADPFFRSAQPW
Briefly: ELISA, absorbance 450 nm, antigen human BTN3A2 GST.

T3 sequence (Q9NZQ7 19-238 limits assumed): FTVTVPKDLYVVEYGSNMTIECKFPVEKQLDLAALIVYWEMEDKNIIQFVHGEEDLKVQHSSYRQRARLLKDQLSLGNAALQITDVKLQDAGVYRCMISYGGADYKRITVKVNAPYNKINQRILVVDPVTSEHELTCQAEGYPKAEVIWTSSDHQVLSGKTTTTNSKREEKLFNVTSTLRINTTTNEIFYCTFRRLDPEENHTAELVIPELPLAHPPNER

B1: ZY0EO5-E07 murine IgG1 (antibody, V domains shown)
VH: QVQLQESGPGLVKPSQTLSLTCTVSGGSISSGGYYWSWIRQHPGKGLEWIGNIYYSGSTYYNPSLKSRVTISVDTSKNQFSLKLSSVTAADTAVYYCAREKALASVIPSGYENYYVVDVWGQGTTVTVSS
VL: DIQLTQSPSFLSASVGGRVTITCWASQGIAGYLAWYQQKPGKAPKLLIYAASTLQSGVPSRFSGSGSGTEFTLTISSLQPEDFATYYCQHLNSYPLTFGGGTKVEIK
notes: also called ZY0E05-E07; E05-E07
The EC50 is the concentration needed to bring the measured effect to its halfway point. A high value points to a need for much substance. In the case of B1, the binding result in the test with huBTN1A1 is recorded as “no binding (tested: 10 µg/ml (antigen))”; with huB7-H1, “no binding (tested: 10 µg/ml (antigen))”; in the test with huB7-H2, “no binding (tested: 10 µg/ml (antigen))”; with huB7-H3, “no binding”; with huHHLA2, “no binding (tested: about 10 µg/ml (antigen))”; with huBTN2A1, “no binding”. The binding result in the test with huBTNL3 is given as “no binding”; with huBTN3A2, “no binding (tested: about 10 µg/ml (antigen))”. The figures for the EC50 in test [1], in [2] and in test [3] were 0.68 nM, 0.71 nM and 0.73 nM, respectively. Moreover, the Max was 2150 in test [1], 1700 in test [2] and 1700 in test [3].

B2: ZY0EP0-C07 murine IgG1 (antibody, V domains shown)
VH: QVQLVESGGVLVKPGGSLRLSCAASGFTLSDYYMSWIRQAPGMGLEWVSYISSSGSTIYYTDSVKGRFTISRDSAKNSLYLQMNSLRAEDTAVYYCARDGVGFDYWGQGTLVTVSS
VL: EIVLTQSPGTLSLFPGERATLSCRASQSVSSSYLAWYQQKPGQSPRLLIYAASSRATGIPDRFSGSGSGTDFTLTISRLEPEDFAVYYCQQYGSSPLYTFGQGTKLEIK
notes: also called ZY0EPO-C07
With B2, the binding result in the test with huBTN1A1 is listed as “no binding (tested: 10 µg/ml (antigen))”; with huB7-H1 it was “no binding (tested: 10 µg/ml (antigen))”; with huB7-H2, “no binding (tested: 10 µg/ml (antigen))”; with huB7-H3, “no binding”; with huHHLA2, “no binding (tested: about 10 µg/ml (antigen))”; with huBTN2A1, “no binding”. Moreover, the binding result with huBTNL3 is on record as “no binding”; with huBTN3A2 it was “no binding (tested: about 10 µg/ml (antigen))”. The EC50 in test [1] was determined as 0.95 nM; in test [2], 1.28 nM; in [3], 0.49 nM. The Max was 1740 in [1], 1250 in test [2] and 1910 in test [3].
